Experimental data: patent US20140128320A1 (TRUSTEES OF COLUMBIA UNIVERSITY IN THE CITY OF NEW YORK, published 2014)

Biological target: T1, insulin receptor (InsR) expressed in ROS17/2.8 osteoblast cells (rat (by the cell line;  for …, UniProt P15127 27-1383, limits assumed)
T1 construct: The species is inferred from the cell line only; also called insulin receptor in ROS cells
Assay: GST pull-down (substrate trapping) from ROS17/2.8 cell lysate, western blot
Description: Recombinant proteins bound to Sepharose beads for 1 hour at 4° C. (insulin receptor trapping) or for 2 h at 4° C. […] Precipitates were collected, washed four times with lysis buffer and resolved on SDS-PAGE, followed by western blotting. Insulin receptor (InsR) was detected using rabbit anti-insulin receptor antibodies (Santa-Cruz, C-19) and GST was detected by mouse anti-GST antibodies (Santa-Cruz).

T1 sequence (P15127 27-1383 limits assumed): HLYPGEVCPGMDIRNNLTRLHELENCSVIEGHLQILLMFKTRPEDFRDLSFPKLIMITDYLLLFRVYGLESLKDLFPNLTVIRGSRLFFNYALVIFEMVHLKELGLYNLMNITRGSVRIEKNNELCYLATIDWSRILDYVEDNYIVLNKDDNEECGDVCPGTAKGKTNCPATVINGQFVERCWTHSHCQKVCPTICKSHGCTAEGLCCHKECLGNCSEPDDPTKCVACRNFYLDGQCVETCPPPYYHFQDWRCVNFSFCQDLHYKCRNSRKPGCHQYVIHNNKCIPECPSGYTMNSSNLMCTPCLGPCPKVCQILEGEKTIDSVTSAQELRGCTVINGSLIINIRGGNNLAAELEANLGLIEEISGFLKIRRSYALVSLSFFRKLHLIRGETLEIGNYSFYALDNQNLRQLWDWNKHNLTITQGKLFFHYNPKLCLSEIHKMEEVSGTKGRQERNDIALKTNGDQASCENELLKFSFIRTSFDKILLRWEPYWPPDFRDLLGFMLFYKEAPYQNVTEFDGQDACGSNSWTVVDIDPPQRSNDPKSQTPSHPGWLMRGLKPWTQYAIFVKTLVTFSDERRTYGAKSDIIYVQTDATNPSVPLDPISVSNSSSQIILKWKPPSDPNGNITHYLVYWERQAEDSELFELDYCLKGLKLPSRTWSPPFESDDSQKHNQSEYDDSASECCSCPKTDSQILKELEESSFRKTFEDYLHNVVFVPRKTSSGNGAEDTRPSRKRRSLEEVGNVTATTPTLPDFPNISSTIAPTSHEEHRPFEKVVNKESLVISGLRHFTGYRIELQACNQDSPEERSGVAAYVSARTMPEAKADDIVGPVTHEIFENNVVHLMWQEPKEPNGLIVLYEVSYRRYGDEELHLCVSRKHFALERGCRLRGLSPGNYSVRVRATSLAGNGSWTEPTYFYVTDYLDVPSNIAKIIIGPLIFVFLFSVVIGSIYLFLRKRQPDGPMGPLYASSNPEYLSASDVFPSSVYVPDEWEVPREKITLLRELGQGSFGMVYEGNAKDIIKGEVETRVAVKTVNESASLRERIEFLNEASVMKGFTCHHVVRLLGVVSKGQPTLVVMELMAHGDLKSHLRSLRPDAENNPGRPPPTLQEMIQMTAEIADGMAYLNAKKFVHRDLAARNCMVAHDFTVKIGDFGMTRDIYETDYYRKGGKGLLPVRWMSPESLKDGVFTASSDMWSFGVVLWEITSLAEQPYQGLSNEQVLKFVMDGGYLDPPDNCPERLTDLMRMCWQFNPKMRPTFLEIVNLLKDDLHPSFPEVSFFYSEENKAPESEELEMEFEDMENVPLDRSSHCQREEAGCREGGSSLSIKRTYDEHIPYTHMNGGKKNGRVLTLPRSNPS

B1: GST-PTP^WT (a fusion of GST with the phosphatase domain I of OST-PTP, rat a.a. 1116-1412) (enzyme)
chain: KELMPYNLWRTHRPIPIHSFRQSYEAKSAHAHQTFFQEFEELKEVGKDQPRLEAEHPDNIIKNRYPHVLPYDHSRVRLTQLPGEPHSDYINANFIPGYSHTQEIIATQGPLKKTLEDFWRLVWEQQVHVIIMLTVGMENGRVLCEHYWPANSTPVTHGHITIHLLAEEPEDEWTRREFQLQHGTEQKQRRVKQLQFTTWPDHSVPEAPSSLLAFVELVQEQVQATQGKGPILVHCSAGVGRTGTFVALLRLLRQLEEEKVADVFNTVYILRLHRPLMIQTLSQYIFLHSCLLNKILE
notes: also called WT OST-PTP; not shown: Glutathione S-transferase (GST) encoded by the vector pGEX 4T3 (Amersham)
binding result: no binding
